# Experimental data published in paper PMC5002983, “Hepatocyte Growth Factor Modulates MET Receptor Tyrosine Kinase and β-Catenin Functional Interactions to Enhance Synapse Formation” (eNeuro, 2016).
# B1: β-catenin (natural protein, UniProt Q02248 1-781, looked up)
# chain: MATQADLMELDMAMEPDRKAAVSHWQQQSYLDSGIHSGATTTAPSLSGKGNPEEEDVDTSQVLYEWEQGFSQSFTQEQVADIDGQYAMTRAQRVRAAMFPETLDEGMQIPSTQFDAAHPTNVQRLAEPSQMLKHAVVNLINYQDDAELATRAIPELTKLLNDEDQVVVNKAAVMVHQLSKKEASRHAIMRSPQMVSAIVRTMQNTNDVETARCTAGTLHNLSHHREGLLAIFKSGGIPALVKMLGSPVDSVLFYAITTLHNLLLHQEGAKMAVRLAGGLQKMVALLNKTNVKFLAITTDCLQILAYGNQESKLIILASGGPQALVNIMRTYTYEKLLWTTSRVLKVLSVCSSNKPAIVEAGGMQALGLHLTDPSQRLVQNCLWTLRNLSDAATKQEGMEGLLGTLVQLLGSDDINVVTCAAGILSNLTCNNYKNKMMVCQVGGIEALVRTVLRAGDREDITEPAICALRHLTSRHQEAEMAQNAVRLHYGLPVVVKLLHPPSHWPLIKATVGLIRNLALCPANHAPLREQGAIPRLVQLLVRAHQDTQRRTSMGGTQQQFVEGVRMEEIVEGCTGALHILARDVHNRIVIRGLNTIPLFVQLLYSPIENIQRVAAGVLCELAQDKEAAEAIEAEGATAPLTELLHSRNEGVATYAAAVLFRMSEDKPQDYKKRLSVELTSSLFRTEPMAWNETADLGLDIGAQGEALGYRQDDPSYRSFHSGGYGQDALGMDPMMEHEMGGHHPGADYPVDGLPDLGHAQDLMDGLPPGDSNQLAWFDTDL
# notes: β-catenin, mouse, endogenous; Endogenous protein, precipitated with mouse anti-β-catenin (BD Biosciences); With HGF a part of it is phosphorylated at Y142; source: endogenous, lysate of crude synaptosomes from P14 mouse neocortex; endogenous, primary mouse neocortical neurons (14 DIV)
# B2: MET receptor tyrosine kinase (receptor, UniProt P16056 25-1379, looked up)
# chain: ECKEALVKSEMNVNMKYQLPNFTAETPIQNVVLHGHHIYLGATNYIYVLNDKDLQKVSEFKTGPVLEHPDCLPCRDCSSKANSSGGVWKDNINMALLVDTYYDDQLISCGSVNRGTCQRHVLPPDNSADIQSEVHCMFSPEEESGQCPDCVVSALGAKVLLSEKDRFINFFVGNTINSSYPPGYSLHSISVRRLKETQDGFKFLTDQSYIDVLPEFLDSYPIKYIHAFESNHFIYFLTVQKETLDAQTFHTRIIRFCSVDSGLHSYMEMPLECILTEKRRKRSTREEVFNILQAAYVSKPGANLAKQIGASPSDDILFGVFAQSKPDSAEPVNRSAVCAFPIKYVNDFFNKIVNKNNVRCLQHFYGPNHEHCFNRTLLRNSSGCEARSDEYRTEFTTALQRVDLFMGRLNQVLLTSISTFIKGDLTIANLGTSEGRFMQVVLSRTAHLTPHVNFLLDSHPVSPEVIVEHPSNQNGYTLVVTGKKITKIPLNGLGCGHFQSCSQCLSAPYFIQCGWCHNQCVRFDECPSGTWTQEICLPAVYKVFPTSAPLEGGTVLTICGWDFGFRKNNKFDLRKTKVLLGNESCTLTLSESTTNTLKCTVGPAMSEHFNVSVIISNSRETTQYSAFSYVDPVITSISPRYGPQAGGTLLTLTGKYLNSGNSRHISIGGKTCTLKSVSDSILECYTPAQTTSDEFPVKLKIDLANRETSSFSYREDPVVYEIHPTKSFISGGSTITGIGKTLNSVSLPKLVIDVHEVGVNYTVACQHRSNSEIICCTTPSLKQLGLQLPLKTKAFFLLDGILSKHFDLTYVHNPVFEPFEKPVMISMGNENVVEIKGNNIDPEAVKGEVLKVGNQSCESLHWHSGAVLCTVPSDLLKLNSELNIEWKQAVSSTVLGKVIVQPDQNFAGLIIGAVSISVVVLLLSGLFLWMRKRKHKDLGSELVRYDARVHTPHLDRLVSARSVSPTTEMVSNESVDYRATFPEDQFPNSSQNGACRQVQYPLTDLSPILTSGDSDISSPLLQNTVHIDLSALNPELVQAVQHVVIGPSSLIVHFNEVIGRGHFGCVYHGTLLDNDGKKIHCAVKSLNRITDIEEVSQFLTEGIIMKDFSHPNVLSLLGICLRSEGSPLVVLPYMKHGDLRNFIRNETHNPTVKDLIGFGLQVAKGMKYLASKKFVHRDLAARNCMLDEKFTVKVADFGLARDMYDKEYYSVHNKTGAKLPVKWMALESLQTQKFTTKSDVWSFGVLLWELMTRGAPPYPDVNTFDITIYLLQGRRLLQPEYCPDALYEVMLKCWHPKAEMRPSFSELVSRISSIFSTFIGEHYVHVNATYVNVKCVAPYPSLLPSQDNIDGEGNT
# notes: MET receptor tyrosine kinase (hepatocyte growth factor receptor), mouse, endogenous; Endogenous protein, precipitated with goat anti-MET (R&D Systems); With HGF the receptor is phosphorylated (pMET blot); source: endogenous, lysate of crude synaptosomes from P14 mouse neocortex; endogenous, primary mouse neocortical neurons (14 DIV)
# B3: N-cadherin (natural protein, UniProt P15116 160-906, looked up)
# chain: DWVIPPINLPENSRGPFPQELVRIRSDRDKNLSLRYSVTGPGADQPPTGIFIINPISGQLSVTKPLDRELIARFHLRAHAVDINGNQVENPIDIVINVIDMNDNRPEFLHQVWNGSVPEGSKPGTYVMTVTAIDADDPNALNGMLRYRILSQAPSTPSPNMFTINNETGDIITVAAGLDREKVQQYTLIIQATDMEGNPTYGLSNTATAVITVTDVNDNPPEFTAMTFYGEVPENRVDVIVANLTVTDKDQPHTPAWNAAYRISGGDPTGRFAILTDPNSNDGLVTVVKPIDFETNRMFVLTVAAENQVPLAKGIQHPPQSTATVSVTVIDVNENPYFAPNPKIIRQEEGLHAGTMLTTLTAQDPDRYMQQNIRYTKLSDPANWLKIDPVNGQITTIAVLDRESPNVKNNIYNATFLASDNGIPPMSGTGTLQIYLLDINDNAPQVLPQEAETCETPEPNSINITALDYDIDPNAGPFAFDLPLSPVTIKRNWTINRLNGDFAQLNLKIKFLEAGIYEVPIIITDSGNPPKSNISILRVKVCQCDSNGDCTDVDRIVGAGLGTGAIIAILLCIIILLILVLMFVVWMKRRDKERQAKQLLIDPEDDVRDNILKYDEEGGGEEDQDYDLSQLQQPDTVEPDAIKPVGIRRLDERPIHAEPQYPVRSAAPHPGDIGDFINEGLKAADNDPTAPPYDSLLVFDYEGSGSTAGSLSSLNSSSSGGDQDYDYLNDWGPRFKKLADMYGGGDD
# notes: N-cadherin (cadherin-2), mouse, endogenous; Endogenous protein, precipitated with rabbit anti-N-cadherin (Santa Cruz Biotechnology); source: endogenous, lysate of crude synaptosomes from P14 mouse neocortex
# Assays:
# Conditions in all cases: partners not purified
# [1] = target: B2; experiment: co-IP; crude synaptosomes from P14 mouse neocortex, PBS or 25 ng/ml HGF for 5 min at 37 °C, lysed in HEPES pH 7.4 buffer with 1% Triton X-100; IP with goat anti-MET, mouse anti-β-catenin or rabbit anti-N-cadherin (control IgG in parallel), protein G plus agarose, washes in lysis buffer plus 150 mM NaCl; Western blot; band ratios as fold change HGF/PBS, 3 experiments
# [2] = target: B3; experiment: as above
# [3] = target: B1; experiment: as above
# [4] = target: B2; experiment: proximity ligation; Duolink in situ PLA on fixed primary mouse neocortical neurons at 14 DIV, endogenous proteins, two antibodies (signal means 40 nm or less); PBS or 25 ng/ml HGF for 5, 10 or 30 min; PLA clusters per area of dendrite
mean fold change (HGF/PBS) of co-immunoprecipitated protein [1],mean fold change (HGF/PBS) of co-immunoprecipitated protein [2],mean fold change (HGF/PBS) of co-immunoprecipitated protein [3],fold increase in density of PLA signal (HGF against PBS) [4],Binder
0.399 fold,1.39 fold,–,–,B1
–,–,0.376 fold,–,B2
–,–,1.31 fold,–,B3
1.8 fold,–,–,~1.5 fold,"synapsin 1 (natural protein, synapsin 1, mouse, endogenous; also called Syn 1; source: endogenous, lysate of crude synaptosomes from P14 mouse neocortex; endogenous, primary mouse neocortical neurons (14 DIV)) not shown"
